B1: Protein SGT1 (Saccharomyces cerevisiae), Q08446 (parent)
chain: MPVEKDLKTAYKALYDEKEPLKALHLYDEILKGSPTNLTALIFKAACLEKLYFGFSDWHSDATMENAKELLDKALMTAEGRGDRSKIGLVNFRYFVHFFNIKDYELAQSYFKKAKNLGYVDDTLPLWEDRLETKLNKKNKKQKDSTNKHTIKPVESIENRGDNNSSHSPISPLKIETAPQESPKFKIDWYQSSTSVTISLFTVNLPESKEQVNIYISPNDRRTLSISYQVPKSGSEFQYNAKLSHEVDPKAVSLKIFPKKLEITLSKIDSTQWKKLEEDILTESSRLSDEGKNSDSATRLLSAETASKERLSYPSSSKKKIDWSKLDIDEEADEEAGSADSFFQKLYAGADPDTKRAMMKSFIESNGTALSTDWEDVSKGTVKTSPPEGMEPKHW

Variants of: B1
Conditions: with skp1_yeast SKP1, P52286
Sequence of skp1_yeast SKP1, P52286 (P52286 whole entry): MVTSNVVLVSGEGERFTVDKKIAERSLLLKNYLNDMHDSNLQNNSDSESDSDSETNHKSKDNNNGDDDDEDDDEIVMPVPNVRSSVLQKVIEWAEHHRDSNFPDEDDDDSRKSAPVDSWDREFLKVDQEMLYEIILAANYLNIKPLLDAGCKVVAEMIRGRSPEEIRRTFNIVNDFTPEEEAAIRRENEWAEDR

| effect of a mutation on the interaction | Variant |
| --- | --- |
| decreasing interaction | T146S |
